{"source": "IntAct's records for PubMed 18940611", "parents": {"B1": {"name": "Programmed cell death 6-interacting protein (Homo sapiens), Q8WUM4 (parent)", "chain": "MATFISVQLKKTSEVDLAKPLVKFIQQTYPSGGEEQAQYCRAAEELSKLRRAAVGRPLDKHEGALETLLRYYDQICSIEPKFPFSENQICLTFTWKDAFDKGSLFGGSVKLALASLGYEKSCVLFNCAALASQIAAEQNLDNDEGLKIAAKHYQFASGAFLHIKETVLSALSREPTVDISPDTVGTLSLIMLAQAQEVFFLKATRDKMKDAIIAKLANQAADYFGDAFKQCQYKDTLPKEVFPVLAAKHCIMQANAEYHQSILAKQQKKFGEEIARLQHAAELIKTVASRYDEYVNVKDFSDKINRALAAAKKDNDFIYHDRVPDLKDLDPIGKATLVKSTPVNVPISQKFTDLFEKMVPVSVQQSLAAYNQRKADLVNRSIAQMREATTLANGVLASLNLPAAIEDVSGDTVPQSILTKSRSVIEQGGIQTVDQLIKELPELLQRNREILDESLRLLDEEEATDNDLRAKFKERWQRTPSNELYKPLRAEGTNFRTVLDKAVQADGQVKECYQSHRDTIVLLCKPEPELNAAIPSANPAKTMQGSEVVNVLKSLLSNLDEVKKEREGLENDLKSVNFDMTSKFLTALAQDGVINEEALSVTELDRVYGGLTTKVQESLKKQEGLLKNIQVSHQEFSKMKQSNNEANLREEVLKNLATAYDNFVELVANLKEGTKFYNELTEILVRFQNKCSDIVFARKTERDELLKDLQQSIAREPSAPSIPTPAYQSSPAGGHAPTPPTPAPRTMPPTKPQPPARPPPPVLPANRAPSATAPSPVGAGTAAPAPSQTPGSAPPPQAQGPPYPTYPGYPGYCQMPMPMGYNPYAYGQYNMPYPPVYHQSPGQAPYPGPQQPSYPFPQPPQQSYYPQQ"}, "B2": {"name": "Programmed cell death 6-interacting protein (Homo sapiens), Q8WUM4 (parent)", "chain": "B1 chain", "partner": "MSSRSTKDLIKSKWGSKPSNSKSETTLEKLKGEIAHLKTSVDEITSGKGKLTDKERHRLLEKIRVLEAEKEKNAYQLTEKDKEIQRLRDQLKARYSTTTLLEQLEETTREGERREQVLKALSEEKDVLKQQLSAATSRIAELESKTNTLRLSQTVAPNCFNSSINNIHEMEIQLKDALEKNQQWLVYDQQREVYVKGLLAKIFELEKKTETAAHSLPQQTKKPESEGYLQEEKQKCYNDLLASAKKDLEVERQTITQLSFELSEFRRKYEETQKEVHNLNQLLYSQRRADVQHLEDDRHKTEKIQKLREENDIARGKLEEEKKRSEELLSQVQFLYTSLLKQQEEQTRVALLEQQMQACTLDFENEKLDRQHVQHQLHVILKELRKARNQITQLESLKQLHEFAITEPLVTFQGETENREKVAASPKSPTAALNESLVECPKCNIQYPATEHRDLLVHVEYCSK"}, "B3": {"name": "Programmed cell death protein 6 (Homo sapiens), O75340 (parent)", "chain": "MAAYSYRPGPGAGPGPAAGAALPDQSFLWNVFQRVDKDRSGVISDTELQQALSNGTWTPFNPVTVRSIISMFDRENKAGVNFSEFTGVWKYITDWQNVFRTYDRDNSGMIDKNELKQALSGFGYRLSDQFHDILIRKFDRQGRGQIAFDDFIQGCIVLQRLTDIFRRYDTDQDGWIQVSYEQYLSMVFSIV"}}, "data": [{"variants_of": "B1", "settings": "with pdcd6_human PDCD6, O75340", "values": [{"variant": "P804A", "effect of a mutation on the interaction": "disrupting interaction"}, {"variant": "Y803A", "effect of a mutation on the interaction": "disrupting interaction"}, {"variant": "P802A", "effect of a mutation on the interaction": "disrupting interaction"}]}, {"variants_of": "B1", "settings": "with pdcd6_human PDCD6, O75340", "remark": "another data set of the same source", "values": [{"variant": "P804A", "effect of a mutation on the interaction": "decreasing interaction"}, {"variant": "Y803A", "effect of a mutation on the interaction": "decreasing interaction"}, {"variant": "P802A", "effect of a mutation on the interaction": "decreasing interaction"}]}, {"variants_of": "B2", "settings": "with cep55_human CEP55, Q53EZ4", "values": [{"variant": "P802A", "effect of a mutation on the interaction": "disrupting interaction"}]}, {"variants_of": "B3", "settings": "with pdc6i_human PDCD6IP", "values": [{"variant": "Y124A", "effect of a mutation on the interaction": "disrupting interaction"}, {"variant": "W95A", "effect of a mutation on the interaction": "disrupting interaction"}, {"variant": "Y180A", "effect of a mutation on the interaction": "disrupting interaction"}, {"variant": "Y91A", "effect of a mutation on the interaction": "disrupting interaction"}, {"variant": "D169A", "effect of a mutation on the interaction": "disrupting interaction"}, {"variant": "R125A", "effect of a mutation on the interaction": "disrupting interaction"}]}]}
